This data set concerns the molecule itself. The data set is described as follows: crystal structure; orthorhombic crystal form, 2.6 Å, nucleotide-free, three copies in the asymmetric unit; contacts between NCS-related neighbouring molecules in the crystal, not the hexameric ring.

B1: Hsp104_(1-360) (domain or fragment, S. cerevisiae, UniProt P31539 1-360, looked up)
chain: MNDQTQFTERALTILTLAQKLASDHQHPQLQPIHILAAFIETPEDGSVPYLQNLIEKGRYDYDLFKKVVNRNLVRIPQQQPAPAEITPSYALGKVLQDAAKIQKQQKDSFIAQDHILFALFNDSSIQQIFKEAQVDIEAIKQQALELRGNTRIDSRGADTNTPLEYLSKYAIDMTEQARQGKLDPVIGREEEIRSTIRVLARRIKSNPCLIGEPGIGKTAIIEGVAQRIIDDDVPTILQGAKLFSLDLAALTAGAKYKGDFEERFKGVLKEIEESKTLIVLFIDEIHMLMGNGKDDAANILKPALSRGQLKVIGATTNNEYRSIVEKDGAFERRFQKIEVAEPSVRQTVAILRGLQPKYE
notes: Hsp104, S. cerevisiae, residues 1-360: N domain (4-164), AAA-1 large domain (165-341) and first helix of the AAA-1 small domain (345-356); three independent copies in the crystallographic asymmetric unit; nucleotide-free; also called N-terminal fragment of S. cerevisiae Hsp104; mol 1; source: E. coli BL21-CodonPlus (DE3)-RIL, purified (Ni-NTA, anion exchange, Mono-S); not shown: His6, N-terminal, …
With B1, the binding result is reported as “binds”.
